# Results as given in patent publication US20240417484A1, “ANTIGEN-BINDING POLYPEPTIDES AGAINST CD73” (UNIVERSITÄTSKLINIKUM HAMBURG-EPPENDORF, priority 2021, published 2024).
# Numbering of substitutions follows the chain as printed.
# T1: recombinant human CD73 ectodomain (aa 27-549) with C-terminal His6x tag (human, UniProt P21589 27-549)
# T1 construct: also called soluble recombinant human CD73; soluble human CD73
# T1 sequence: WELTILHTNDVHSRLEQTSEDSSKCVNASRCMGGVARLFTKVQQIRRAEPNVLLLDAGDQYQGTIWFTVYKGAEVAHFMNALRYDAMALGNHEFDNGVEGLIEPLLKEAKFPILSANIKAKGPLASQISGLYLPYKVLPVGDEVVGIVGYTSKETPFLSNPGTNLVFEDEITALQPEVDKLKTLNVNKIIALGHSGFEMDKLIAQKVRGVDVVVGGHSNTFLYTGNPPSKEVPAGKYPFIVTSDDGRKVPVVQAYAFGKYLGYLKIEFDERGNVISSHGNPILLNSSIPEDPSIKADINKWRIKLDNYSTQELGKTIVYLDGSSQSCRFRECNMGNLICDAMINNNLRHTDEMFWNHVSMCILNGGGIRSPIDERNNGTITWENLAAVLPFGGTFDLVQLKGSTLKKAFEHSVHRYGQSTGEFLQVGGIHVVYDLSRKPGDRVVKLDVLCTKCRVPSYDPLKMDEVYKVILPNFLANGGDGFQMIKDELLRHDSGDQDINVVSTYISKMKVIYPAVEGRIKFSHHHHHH
# T2: human CD73 on cells (CD73-transfected HEK cells; native on PBMCs; OCI-AML3 cells) (human, UniProt P21589 27-549)
# T2 construct: also called NT5E; gene ID 4907
# T2 sequence: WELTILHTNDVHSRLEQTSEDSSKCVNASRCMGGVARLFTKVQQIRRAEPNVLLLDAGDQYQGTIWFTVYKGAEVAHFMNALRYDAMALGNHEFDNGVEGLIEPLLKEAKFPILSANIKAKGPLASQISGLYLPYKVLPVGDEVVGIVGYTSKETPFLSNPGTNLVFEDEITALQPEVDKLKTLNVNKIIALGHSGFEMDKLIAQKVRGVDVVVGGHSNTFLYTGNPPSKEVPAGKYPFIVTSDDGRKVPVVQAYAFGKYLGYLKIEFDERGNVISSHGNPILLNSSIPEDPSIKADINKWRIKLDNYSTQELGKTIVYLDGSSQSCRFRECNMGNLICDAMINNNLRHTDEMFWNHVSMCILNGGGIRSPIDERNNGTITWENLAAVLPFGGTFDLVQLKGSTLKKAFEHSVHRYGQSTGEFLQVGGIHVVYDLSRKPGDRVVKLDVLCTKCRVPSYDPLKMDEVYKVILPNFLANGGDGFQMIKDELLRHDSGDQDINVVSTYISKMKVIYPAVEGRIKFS
# T3: mouse CD73 on transfected HEK cells (mouse, UniProt Q61503 29-551)
# T3 construct: whole, on cells; also called murine CD73; gene ID 23959
# T3 sequence (looked up): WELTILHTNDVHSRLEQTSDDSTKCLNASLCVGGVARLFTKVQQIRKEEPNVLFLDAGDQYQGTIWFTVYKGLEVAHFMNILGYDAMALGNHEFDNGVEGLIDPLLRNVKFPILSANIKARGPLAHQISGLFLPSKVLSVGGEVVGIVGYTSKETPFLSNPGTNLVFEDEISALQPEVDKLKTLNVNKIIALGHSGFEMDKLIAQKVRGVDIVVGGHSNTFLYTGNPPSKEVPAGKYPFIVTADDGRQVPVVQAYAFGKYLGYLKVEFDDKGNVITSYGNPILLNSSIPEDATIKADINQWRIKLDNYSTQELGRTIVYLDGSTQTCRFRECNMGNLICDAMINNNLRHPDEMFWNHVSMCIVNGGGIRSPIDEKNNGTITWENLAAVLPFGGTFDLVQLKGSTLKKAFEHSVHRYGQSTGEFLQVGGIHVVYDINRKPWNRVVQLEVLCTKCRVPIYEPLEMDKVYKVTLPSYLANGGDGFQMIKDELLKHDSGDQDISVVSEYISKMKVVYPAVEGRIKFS
# B1: SB121 rabbit IgG hcAb (Fc fusion)
# heavy: QVQLQESGGGLVQAGGSLRLSCAASGSIGSIIAMGWYRQGPGKQRELVARMFTDDGSTNYDDSVKGRFTISRDSAGTTVYLQMNSLKPEDTAVYYCNAQRRWNAYWGPGTQVTVSS
# notes: not shown: hinge and Fc-domains of rabbit IgG
# B2: SB96 rabbit IgG hcAb (Fc fusion)
# heavy: DVQLQASGGGLVQPGGSLRLSCTASGFTLDYLSIGWFRQVPGKEREGVSCINSSGGSTNYADSLKGRLTISRDNAKNTVYLQMNSLKPEDTAVYYCAAHKYYYCSNKVEVFDYWGQGTPVTVSS
# notes: VHH fused upstream of hinge and Fc of rabbit IgG; also called Nb-rbIgG hcAb SB96; not shown: hinge and Fc-domains of rabbit IgG
# B3: SB116 rabbit IgG hcAb (Fc fusion)
# heavy: QVKLQESGGGRVQTGGSLRLSCAASGISFSITTMYWYRQAPGEQRQLVALITDRGNTYYVDSVKGRFTISRDDSKNTVYLQMNDLKPEDTAVYFCNSIPGNDWGQGTQVTVSS
# notes: also called SB116-rbFc; dimeric SB116 Fc construct; not shown: hinge and Fc-domains of rabbit IgG
# B4: SB143 rabbit IgG hcAb (Fc fusion)
# heavy: QVQLVESGGGLVQAGGSLRLSCAASGRTFSRSTMGWFRQAPGKERVFVAAIRWIGGTTTYGDSVKGRFTISVDNAKNTLYLQMNSLKPEDTAVYYCAATAGGPYYLGGRDILYDYWGQGTQVTVSS
# notes: as for B1
# B5: SB144 rabbit IgG hcAb (Fc fusion)
# heavy: B4 heavy with R31G, V46A, T58A, T59K, V72I, Y104D, L112V
# notes: as for B1
# B6: SB139 rabbit IgG hcAb (Fc fusion)
# heavy: QVQLQESGGGLVQAGGSLRLSCAASENIFNIYGMGWYRQAPGKLRDLVAKITSGGRTTYADSVKGRFTISGDNAKNTVYLQMNSLKPEDTAVYYCNSYYYWGQGTQVTVSS
# notes: as for B1
# B7: SB141 rabbit IgG hcAb (Fc fusion)
# heavy: QVQLVESGGGLVQPGGSLRLSCAASGFTFINYHMSWLRQAPGKGLEWVSEIHSRGDITSYTNSVKGRFTISRDNAKNTLYLQMNSLKFDDTAVYYCARSRDLFNEGEYDYWGRGTQVTVSS
# notes: as for B1
# Target: T1, recombinant human CD73 ectodomain (aa …)
# Experiment: BLI (Octet), immobilized Nb-rbIgG hcAb, soluble human CD73 as analyte
# Experimental: The binding off-rate constants of bivalent hcAbs to human and mouse CD73 protein were determined by […] kinetic analysis on Octet RED96 (ForteBio). Immobilization of rabbit IgG hcAbs on the protein A-biosensor surface was done in HEK-6E cell supernatant, and regeneration of analytes was done with 100 mM Glycin pH=2.5. Recombinant mouse or human CD73 ectodomain was used as analytes and tested at a saturating dose of 200 ng/μl. Sensorgrams were fitted using least square regression in association than dissociation Model in Prism8 (Graphpad).
row,Binder,koff [s⁻¹]
1,B1,0.022
2,B2,3.9e-05
3,B3,0.00017
4,B4,0.0013
5,B5,0.00023
6,B6,0.046
7,B7,0.00045

# Target: T2, human CD73 on cells (CD73-transfected …)
# Experiment: flow cytometry, human CD73-expressing cells; competitor: IPH5301
# Experimental: (§1) The binding specificities of the purified hcAbs were determined by flow cytometry using HEK cells transiently co-transfected with expression vectors for GFP and either mouse CD73, human CD73 or a control protein (CD39). 1×10⁶ cells were incubated with 10 μl of the Nb-rbIgG hcAb containing HEK-6E cell supernatants for 30 min at 4° C. […] The cells were resuspended in PBS and analyzed by flow cytometry on FACS Canto or FACS Celesta (BD Biosciences, Heidelberg). Data evaluation was conducted using the software FlowJo (Treestar, Stanford, US).
# (§2) To evaluate the epitopes on the CD73 protein recognized by different VHHs, representative rabbit IgG hcAbs were binned against a set of human IgG hcAbs, and bound hcAbs were detected with a PE-conjugated anti-rabbit IgG secondary antibody. Cells were pre-incubated with excess human IgG hcAbs for […] at RT to block specific epitopes before addition of rabbit IgG hcAbs as detectors and further incubation for 15 min at RT. Cells were washed, and bound antibodies were detected with PE-conjugated anti-rabbit IgG polyclonal antibody. Cells were washed and analyzed by flow cytometry on a BD-FACS Canto. Data were analyzed using the FlowJo software (Treestar). Lack of blockade by a non-binding control human IgG hcAb served as negative control (unblocked), and blockade of binding with the same VHH carrying human IgG hcAb as the rabbit IgG hcAb used for detection served as positive controls for blocking. Values for blocking were determined by comparing the mean fluorescence intensities (MFIs) of PE staining of transfected cells for unblocked vs blocked rabbit hcAbs using the formula: inhibition (%)=100−(MFI (blocked)/MFI MFI(unblocked)*100). The values were rounded to whole percentages.
row,Binder,percent inhibition of binding [%]
1,B1,77
2,B2,90
3,B3,94
4,B4,99
5,B6,66
6,B7,40

# Target: T2, human CD73 on cells (CD73-transfected …)
# Experiment: flow cytometry, human CD73-expressing cells; competitor: human IgG hcAb SB96
# Experimental: as §1, §2
row,Binder,percent inhibition of binding [%]
1,B1,53
2,B2,100
3,B3,100
4,B4,100
5,B6,76
6,B7,13

# Target: T2, human CD73 on cells (CD73-transfected …)
# Experiment: flow cytometry, human CD73-expressing cells; competitor: human IgG hcAb SB139
# Experimental: as §1, §2
row,Binder,percent inhibition of binding [%]
1,B1,0
2,B2,-25
3,B3,2
4,B4,16
5,B6,50
6,B7,-7

# Target: T2, human CD73 on cells (CD73-transfected …)
# Experiment: flow cytometry, human CD73-expressing cells; competitor: human IgG hcAb SB143
# Experimental: as §1, §2
row,Binder,percent inhibition of binding [%]
1,B1,85
2,B2,70
3,B3,65
4,B4,91
5,B6,77
6,B7,66

# Target: T3, mouse CD73 on transfected HEK cells
# Experiment: specificity column, binding to human (h) and mouse (m) CD73
# Experimental: as §1
row,Binder,binding result
1,B1,binds
2,B2,binds
3,B3,binds
4,B5,binds
5,B6,binds

# Target: T2, human CD73 on cells (CD73-transfected …)
# Experiment: flow cytometry, human CD73-expressing cells; competitor: human IgG hcAb SB116
# Experimental: as §1, §2
row,Binder,percent inhibition of binding [%]
1,B1,75
2,B2,73
3,B3,72
4,B4,97
5,B6,75
6,B7,16

# Target: T2, human CD73 on cells (CD73-transfected …)
# Experiment: flow cytometry, human CD73-expressing cells; competitor: human IgG hcAb SB141
# Experimental: as §1, §2
row,Binder,percent inhibition of binding [%]
1,B1,77
2,B2,17
3,B3,47
4,B4,35
5,B6,47
6,B7,84

# Target: T2, human CD73 on cells (CD73-transfected …)
# Experiment: flow cytometry, human CD73-expressing cells; competitor: human IgG hcAb SB121
# Experimental: as §1, §2
row,Binder,percent inhibition of binding [%]
1,B1,69
2,B2,-29
3,B3,6
4,B4,13
5,B6,3
6,B7,-1

# Target: T2, human CD73 on cells (CD73-transfected …)
# Experiment: flow cytometry, human CD73-expressing cells; competitor: MEDI9447
# Experimental: as §1, §2
row,Binder,percent inhibition of binding [%]
1,B1,74
2,B2,92
3,B3,97
4,B4,98
5,B6,73
6,B7,26
